Results as given in patent publication US20250122303A1, “TREATMENT AND PREVENTION OF CANCER USING HER3 ANTIGEN-BINDING MOLECULES” (Hummingbird Bioscience Pte. Ltd., priority 2021, published 2025).

Legend:
[1] = Toxicity in BALB/c mice (haematology, clinical chemistry, observations); format: in vivo, mouse; conditions: single IP dose 1000 μg
Method: Hemotoxicity was investigated in an experiment in which 6-8 week old female BALB/c mice (20-25 g) were injected intraperitoneally with a single dose of 1000 μg anti-HER3 10D1 antibody or an equal volume of PBS. Blood samples were obtained at 96 hours post injection and analysed for numbers of different types of white blood cells by flow cytometry and electrolyte indices for NA^+, K^+, and Cl^−.
Mice were also analysed for correlates hepatotoxicity, nephrotoxicity and pancreatic toxicity at 96 hours post injection. […] Left bars represent vehicle, right bars represent 10D1 treatment, end points of the Charles River reference range indicated with dotted lines.
3 mice were injected with each treatment, 4 mice were injected with PBS control. Blood samples were obtained at 96 hours post injection and analysed for RBC indices (total RBC count, haematocrit, haemoglobin, platelet count, mean corpuscular volume, mean corpuscular haemoglobin, mean corpuscular haemoglobin concentration) and WBC indices (total WBC count, lymphocyte count, neutrophil count, monocyte count). Analysis was performed using a HM5 Hematology Analyser.
A further study was performed in the BALB/c mice to assess the toxicological effects of repeat doses of 500 μg (˜25 mg/kg) 10D1 F.FcA or 10D1F.FcB. Antibody was administered once a week for four weeks. Blood was obtained 28 days after the first administration.

[2] = molecular target: heterodimerisation of HER3 and HER2 (Homo sapiens, UniProt P21860); assay: ELISA inhibition of HER2-HER3 interaction; format: biochemical; conditions: Example 4.1: His-tagged HER2 coated, biotinylated HER3
Method: The anti-HER3 antibodies were analysed for their ability to inhibit heterodimerisation of HER3 and HER2. Briefly, 96-well plates (Nunc, Denmark) were coated with 0.1 μg/ml His-tagged HER2 protein in PBS for 16 h at 4° C. After blocking for 1 h with 1% BSA in PBS at room temperature, recombinant biotinylated human HER3 protein was added in the presence of different concentrations of anti-HER3 antibody clone 10D1, and pates were incubated for 1 h at room temperature. Plates were subsequently washed three times, and then incubated with HRP-conjugated secondary antibody for 1 h at room temperature. After washing, plates were developed with colorimetric detection substrate 3,3′,5,5′-tetramethylbenzidine (Turbo-TMB; Pierce, USA) for 10 min. The reaction was stopped with 2M H2SO4, and OD was measured at 450 nm.
Plate-based ELISA dimerisation assays were carried out according to standard protocols. Plates were coated with 1 μg/ml HER2-Fc protein. […] Plates were then washed and incubated for 1 hour with secondary anti-HIS HRP antibody. Plates were washed, treated with TMB for 10 mins and the reaction was stopped using 2M H2SO4 stop solution. The absorbance was read at 450 nm.

[3] = molecular target: T1, human EGFR (Homo sapiens, UniProt P00533); assay: ELISA specificity, human EGFR; format: binding; conditions: antibody up to 10 μg/ml
T1 construct: purchased Sino Biological Inc., China
Method: (§1) ELISAs were used to determine the binding specificity of the antibodies. The antibodies were analysed for binding to human HER3 polypeptide, as well as respective mouse, rat and monkey homologues of HER3 (Sino Biological Inc., China). The antibodies were also analysed for their ability to bind to human EGFR and human HER2 (Sino Biological Inc., China).
ELISAs were carried out according to standard protocols. Briefly, 96-well plates (Nunc, Denmark) were coated with 0.1 μg/ml of target polypeptide in phosphate-buffered saline (PBS) for 16 h at 4° C. After blocking for 1 h with 1% BSA in Tris buffer saline (TBS) at room temperature, the anti-HER3 antibody was serially diluted with the highest concentration being 10 μg/ml, and added to the plate. Post 1 h incubation at room temperature, plates were washed three times with TBS containing 0.05% Tween 20 (TBS-T) and were then incubated with a HRP-conjugated anti-His antibody (Life Technologies, Inc., USA) for 1 h at room temperature. […] The reaction was stopped with 2M H2SO4, and OD was measured at 450 nm.
The antibodies were analysed for their ability to bind to human HER3 polypeptide as well as human HER1 (EGFR) and human HER2 (Sino Biological Inc., China). […]
ELISAs were carried out according to standard protocols. […] The reaction was stopped with 2M H2SO4, and OD was measured at 450 nm.

[4] = molecular target: T2, human HER3 (HEK293 HER3 O/E cells) (Homo sapiens, UniProt P21860); assay: Cell surface antigen-binding by flow cytometry
T2 construct: expressed in transfected cells; host or cells: HEK293
Method: The cells were washed thrice with FACS buffer (PBS with 5 mM EDTA and 0.5% BSA) and resuspended in FITC-conjugated anti-FC antibody (Invitrogen, USA) for 40 min at 2-8° C. Cells were washed again and resuspended in 200 μL of FACS flow buffer (PBS with 5 mM EDTA) for flow cytometric analysis using MACSQuant 10 (Miltenyi Biotec, Germany). After acquisition, all raw data were analyzed using Flowlogic software. Cells were gated using forward and side scatter profile percentage of positive cells was determined for native and overexpressing cell populations.
The cells were washed with buffer (PBS with 2 mM EDTA and 0.5% BSA) and resuspended in FITC-conjugated anti-FC antibody (Invitrogen, USA) at 10 μg/ml for 20 min at 4° C. Cells were washed again and resuspended in 200 μL of FACS flow buffer (PBS with 5 mM EDTA) for flow cytometric analysis using MACSQuant 10 (Miltenyi Biotec, Germany). Unstained WT and transfected HEK293 cells were included in the analysis as negative controls. After acquisition, all raw data were analyzed using Flowlogic software. Cells were gated using forward and side scatter profile percentage of positive cells was determined for native and overexpressing cell populations.

[5] = molecular target: T3, mouse HER3 (Mus musculus, UniProt Q61526); assay: ELISA cross-reactivity, mouse HER3; format: binding
T3 construct: purchased Sino Biological Inc., China
T3 sequence (Q61526 20-1339): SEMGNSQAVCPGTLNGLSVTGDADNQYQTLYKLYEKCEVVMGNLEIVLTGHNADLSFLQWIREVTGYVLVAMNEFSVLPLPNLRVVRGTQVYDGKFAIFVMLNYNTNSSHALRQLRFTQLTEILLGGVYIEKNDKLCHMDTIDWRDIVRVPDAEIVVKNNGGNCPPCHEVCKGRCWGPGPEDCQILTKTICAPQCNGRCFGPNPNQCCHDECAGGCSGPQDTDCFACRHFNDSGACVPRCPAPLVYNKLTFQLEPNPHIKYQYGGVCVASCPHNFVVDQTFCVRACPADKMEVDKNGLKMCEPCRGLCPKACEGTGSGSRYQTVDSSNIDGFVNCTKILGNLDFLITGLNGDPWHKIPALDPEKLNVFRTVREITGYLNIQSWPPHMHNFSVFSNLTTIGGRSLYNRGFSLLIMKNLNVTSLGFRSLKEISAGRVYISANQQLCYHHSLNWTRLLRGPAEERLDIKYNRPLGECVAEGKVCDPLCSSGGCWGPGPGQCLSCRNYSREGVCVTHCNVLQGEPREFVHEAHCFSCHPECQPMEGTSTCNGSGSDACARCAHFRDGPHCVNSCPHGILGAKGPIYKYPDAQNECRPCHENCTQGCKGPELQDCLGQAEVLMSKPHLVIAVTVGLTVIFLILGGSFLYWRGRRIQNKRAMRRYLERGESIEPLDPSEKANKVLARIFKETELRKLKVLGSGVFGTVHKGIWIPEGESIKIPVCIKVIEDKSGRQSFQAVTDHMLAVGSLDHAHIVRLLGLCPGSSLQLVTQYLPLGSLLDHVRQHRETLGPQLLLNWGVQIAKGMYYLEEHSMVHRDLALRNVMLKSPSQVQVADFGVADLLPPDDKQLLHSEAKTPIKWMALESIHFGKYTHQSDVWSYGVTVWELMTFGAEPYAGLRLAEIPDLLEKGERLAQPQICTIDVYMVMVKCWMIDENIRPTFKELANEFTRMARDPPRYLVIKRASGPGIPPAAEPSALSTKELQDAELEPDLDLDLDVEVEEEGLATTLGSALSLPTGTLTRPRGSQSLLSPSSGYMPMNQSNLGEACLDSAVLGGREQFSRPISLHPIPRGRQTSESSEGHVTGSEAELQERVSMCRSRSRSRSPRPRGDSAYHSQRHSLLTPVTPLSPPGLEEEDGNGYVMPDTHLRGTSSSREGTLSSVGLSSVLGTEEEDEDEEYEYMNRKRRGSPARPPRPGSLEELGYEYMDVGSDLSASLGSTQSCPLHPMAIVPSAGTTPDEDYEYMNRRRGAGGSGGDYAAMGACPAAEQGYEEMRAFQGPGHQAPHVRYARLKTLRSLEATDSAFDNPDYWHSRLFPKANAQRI
Method: as §1
ELISAs were carried out according to standard protocols. Briefly, 96-well plates (Nunc, Denmark) were coated with 0.1 μg/ml of target polypeptide in phosphate-buffered saline (PBS) for 16 h at 4° C. After blocking for 1 h with 1% BSA in Tris buffer saline (TBS) at room temperature, the anti-HER3 antibody was serially diluted with the highest concentration being 10 μg/ml, and added to the plate. Post 1 h incubation at room temperature, plates were washed three times with TBS containing 0.05% Tween 20 (TBS-T) and were then incubated with a HRP-conjugated anti-His antibody (Life Technologies, Inc., USA) for 1 h at room temperature. After washing, plates were developed with colorimetric detection substrate 3,3′,5,5′-tetramethylbenzidine (Turbo-TMB; Pierce, USA) for 10 min. The reaction was stopped with 2M H2SO4, and OD was measured at 450 nm. […]

B1: 10D1: anti-HER3 antibody clone, VH SEQ ID NO:24, VL SEQ ID NO:74; [1] of Example 2.2 (antibody, V domains shown)
VH: DVQLQESGPDLVKPSQSLSLTCTVTGYSITSGYSWHWIRQFPGNKLEWMGSIHYSGGTNYNPSLKSRISITRDTSKNQFFLQLNSVTTEDTATYFCARMTTAPRYPFDYWGQGTTLTVSS
VL: DIVMTQSQKFMSTSVGDRVSVTCKASQIVGSNVAWYQQKPGQSPKPLIYSASYRYSGVPDRFTASGSGTDFTLTITNVQSEDLAEYFCQQYSSHPLTFGAGTKLELK
For B1, the “clinical signs, gross necroscopy or weight” value [1] was “No differences”, the “kidney, liver or pancreatic indices” value ([1]; 96 hours) was “no effect on the kidney, liver or pancreatic indices” and the “numbers of different blood cell types and electrolyte indices” value ([1]; 96 hours) was “within the Charles River reference range”. The “inhibition of interaction between HER2 and HER3” value [2] was “inhibit interaction between HER2 and HER3 in a dose-dependent fashion”, the “binding to human EGFR (HER1)” value [3] was “not to bind” and the “extent of binding to human HER3-expressing cells” value ([4]; 10 μg/ml antibody) was “bind to human HER3-expressing cells to a similar extent”. The “extent of binding to human HER3-expressing cells” value ([4]; 20 μg/ml antibody) was “bind to human HER3-expressing cells to a similar extent” and the “binding / cross-reactivity with mouse HER3” value [5] was “substantial cross-reactivity”.
